# Results taken from patent US20090202549A1 (published 2009).
# T1: human p40 single mutant M23T (human, UniProt P29460 23-328)
# T1 construct: transiently expressed in HEK293E cells, supernatant used
# T1 sequence: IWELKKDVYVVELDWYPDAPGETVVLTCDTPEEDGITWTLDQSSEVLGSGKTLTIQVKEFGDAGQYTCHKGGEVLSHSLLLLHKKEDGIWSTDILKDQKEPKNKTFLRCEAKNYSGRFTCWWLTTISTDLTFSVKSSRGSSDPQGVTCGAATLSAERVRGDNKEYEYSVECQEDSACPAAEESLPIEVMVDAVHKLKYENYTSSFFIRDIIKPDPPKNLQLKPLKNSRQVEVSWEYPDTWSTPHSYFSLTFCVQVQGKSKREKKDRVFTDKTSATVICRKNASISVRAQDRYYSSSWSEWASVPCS
# T2: human p40 single mutant E45A (human, UniProt P29460 23-328)
# T2 construct: transiently expressed in HEK293E cells, supernatant used
# T2 sequence: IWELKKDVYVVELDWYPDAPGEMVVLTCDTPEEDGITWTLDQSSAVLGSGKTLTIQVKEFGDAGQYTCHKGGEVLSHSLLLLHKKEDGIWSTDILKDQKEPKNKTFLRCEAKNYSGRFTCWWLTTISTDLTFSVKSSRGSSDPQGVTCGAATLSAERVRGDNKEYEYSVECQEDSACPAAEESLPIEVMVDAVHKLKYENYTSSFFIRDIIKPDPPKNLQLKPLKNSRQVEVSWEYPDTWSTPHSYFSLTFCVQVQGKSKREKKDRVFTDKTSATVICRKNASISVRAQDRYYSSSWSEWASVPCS
# T3: human p40 single mutant L40T (human, UniProt P29460 23-328)
# T3 construct: transiently expressed in HEK293E cells, supernatant used
# T3 sequence: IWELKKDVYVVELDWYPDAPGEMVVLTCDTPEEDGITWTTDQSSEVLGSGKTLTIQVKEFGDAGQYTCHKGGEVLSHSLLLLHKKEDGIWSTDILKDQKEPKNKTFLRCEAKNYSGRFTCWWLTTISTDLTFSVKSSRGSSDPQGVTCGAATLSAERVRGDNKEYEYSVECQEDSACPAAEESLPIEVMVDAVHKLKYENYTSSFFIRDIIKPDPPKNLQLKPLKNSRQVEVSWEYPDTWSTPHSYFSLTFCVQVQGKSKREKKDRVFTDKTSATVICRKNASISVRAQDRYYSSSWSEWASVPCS
# T4: human p40 single mutant S43R (human, UniProt P29460 23-328)
# T4 construct: transiently expressed in HEK293E cells, supernatant used
# T4 sequence: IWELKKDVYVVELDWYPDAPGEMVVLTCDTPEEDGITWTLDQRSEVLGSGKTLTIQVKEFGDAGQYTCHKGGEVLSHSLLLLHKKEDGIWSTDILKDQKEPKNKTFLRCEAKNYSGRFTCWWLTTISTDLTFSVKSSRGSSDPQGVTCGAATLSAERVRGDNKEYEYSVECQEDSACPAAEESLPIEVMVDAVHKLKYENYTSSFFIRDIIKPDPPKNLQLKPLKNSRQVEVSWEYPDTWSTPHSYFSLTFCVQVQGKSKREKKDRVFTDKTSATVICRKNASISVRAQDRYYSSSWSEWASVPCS
# B1: p40 mAb (fully human monoclonal antibody directed against the p40 subunit of human IL-12 and IL-23) (antibody, V domains shown)
# VH: EVQLVQSGAEVKKPGESLKISCKGSGYSFTTYWLGWVRQMPGKGLDWIGIMSPVDSDIRYSPSFQGQVTMSVDKSITTAYLQWNSLKASDTAMYYCARRRPGQGYFDFWGQGTLVTVSS
# VL: DIQMTQSPSSLSASVGDRVTITCRASQGISSWLAWYQQKPEKAPKSLIYAASSLQSGVPSRFSGSGSGTDFTLTISSLQPEDFATYYCQQYNIYPYTFGQGTKLEIKR
# notes: Fully human IgG made in a mammalian cell line; also called IL-12 p40 antibody; IL-12p40 antibody
# How the values were obtained:
# Test in all cases: capture assay, relative binding affinity of p40 mAb to p40 muteins (FIG. 4)
# [1] = biological target: T1, human p40 single mutant M23T
# Experimental: (§1) In brief, MSD high bind plates (Meso Scale Discovery, MD) were coated with 5 μl of a capture monoclonal antibody (5 μg/ml) at room temperature for 1 hour. […] One-hundred and fifty (150) μl of 5% MSD Blocker A buffer was added to each well and incubated for 1 hr at room temperature. Plates were washed three times with 0.1 M HEPES buffer (pH 7.4). These protein-charged ELISA plates were incubated with 25 μl of different transiently expressed p40 mutant supernatants (1:10 dilution with 0.1 M HEPES buffer, pH 7.4) for 1 hr at room temperature. The plates were washed three times with 0.1 M HEPES buffer (pH 7.4). Twenty-five (25) μl of different concentrations of MSD Sulfo-TAG labeled p40 mAb, ranging from 0 to 20 μg/ml, were dispensed to micro-wells. After incubation for 2 hrs shaking at room temperature, plates were washed 3 times with 0.1 M HEPES buffer (pH 7.4). One hundred and fifty (150) μl of diluted MSD Read Buffer T was dispensed into each well and the plates were analyzed with a SECTOR imager (MSD).
# (§2) The relative binding affinity of p40 mAb to different mutant proteins was further analyzed by a capture assay. […] The other mutations, M23T, L40T and S43R, in the interface, each reduced binding by approximately 40%. E45A reduced binding by about 70%.
# [2] = biological target: T2, human p40 single mutant E45A
# Experimental: as §1, §2
# [3] = biological target: T3, human p40 single mutant L40T
# Experimental: as §1, §2
# [4] = biological target: T4, human p40 single mutant S43R
# Experimental: as §1, §2
binder,measurement,setting,value
B1,reduction of binding (relative binding affinity),[1],~40%
same,reduction of binding (relative binding affinity),[2],~70%
same,reduction of binding (relative binding affinity),[3],~40%
same,reduction of binding (relative binding affinity),[4],~40%
